B1: H-Dmt-Tic-NH-1-adamantane (peptide)
peptide: H-[Dmt]-[Tic]-{NH(1-Adamantyl)}
SMILES: Cc1cc(O)cc(C)c1C[C@H](N)C(=O)N1Cc2ccccc2C[C@H]1C(=O)NC12CC3CC(CC(C3)C1)C2
B2: H-Dmt-Tic-Ala-NH-tBu (peptide)
peptide: H-[Dmt]-[Tic]-Ala-NHtBu
SMILES: Cc1cc(O)cc(C)c1C[C@H](N)C(=O)N1Cc2ccccc2C[C@H]1C(=O)N[C@@H](C)C(=O)NC(C)(C)C

Non-standard residues stand in square brackets, D forms with d. *: point of attachment. des‑NH2‑α‑pyrrolidine‑1‑yl = Dmt (2',6'-dimethyl-L-tyrosine) with the α-amine replaced by pyrrolidine-1-yl, Cc1cc(O)cc(C)c1C[C@@H](C(=O)*)N1CCCC1; des‑NH2‑α‑pyrrole‑1‑yl = replacement of the α-amino group by a pyrrol-1-yl group; NH(1-Adamantyl) = C1C2CC3CC1CC(N*)(C2)C3; Dmt = Cc1cc(O)cc(C)c1C[C@H](N)C(=O)O; NH‑tetrazole‑5‑yl = n1nc(N*)n[nH]1; Tic = O=C(O)[C@@H]1Cc2ccccc2CN1; dTic = O=C(O)[C@H]1Cc2ccccc2CN1; NHtBu = CC(C)(C)N*

Chain of δ-opioid receptor of the mouse vas deferens (MVD) (mouse), P32300 (P32300 whole entry, stated change not applied): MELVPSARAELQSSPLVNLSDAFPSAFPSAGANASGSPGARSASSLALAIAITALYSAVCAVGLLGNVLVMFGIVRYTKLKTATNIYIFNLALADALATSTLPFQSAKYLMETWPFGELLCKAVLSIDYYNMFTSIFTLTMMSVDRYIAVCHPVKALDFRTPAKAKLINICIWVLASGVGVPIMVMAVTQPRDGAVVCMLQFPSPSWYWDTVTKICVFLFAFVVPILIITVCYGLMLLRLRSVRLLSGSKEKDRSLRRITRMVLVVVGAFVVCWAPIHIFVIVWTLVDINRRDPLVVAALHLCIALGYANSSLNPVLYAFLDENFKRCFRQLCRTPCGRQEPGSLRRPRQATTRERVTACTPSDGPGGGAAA

The assay has as its target δ-opioid receptor of the mouse vas deferens (MVD) (mouse), P32300. Nature of the assay: cell-based or functional assay.
H-[Dmt]-[Tic]-{NH‑tetrazole‑5‑yl} [H-Dmt-Tic-NH-tetrazole-5-yl]: the MVD Ke was 36.3 nM and the MVD pA2 came out at 7.44. Molecule {N,N‑dimethyl}-[Dmt]-[Tic]-NHMe [N,N(Me)2-Dmt-Tic-NHMe] registered an MVD Ke of 0.41 nM and an MVD pA2 of 9.39. Molecule {des‑NH2‑α‑pyrrolidine‑1‑yl}-[Dmt]-[Tic]-OH [[des-NH2-α-pyrrolidine-1-yl]-Dmt-Tic-OH] gave an MVD Ke of 121 nM and an MVD pA2 of 6.9.

H-[Dmt]-[Tic]-Ala-OH [H-Dmt-Tic-Ala-OH] returned an MVD Ke of 4 nM and an MVD pA2 of 8.4. The matching figures for {N,N‑dimethyl}-[Dmt]-[Tic]-OH (also: tritium-labelled form used as radioligand) [N,N(Me)2-Dmt-Tic-OH]: 0.28 nM and 9.4.

Take H-[Dmt]-[Tic]-NHMe [H-Dmt-Tic-NHMe]: the MVD ED50 is 21200 nM and the MVD Ke was > 10000 nM. On the same counts, the results for B1 are 870 nM and > 10000 nM.

In the case of H-[Dmt]-[Tic]-Ala-NHMe (SMILES CNC(=O)[C@H](C)NC(=O)[C@@H]1Cc2ccccc2CN1C(=O)[C@@H](N)Cc1c(C)cc(O)cc1C) [H-Dmt-Tic-Ala-NHMe], the MVD ED50 came out at 1290 nM.

As to {N,N‑dimethyl}-[Dmt]-[dTic]-{NH(1-Adamantyl)} [N,N(Me)2-Dmt-D-Tic-NH-1-adamantane], the MVD Ke was 128 nM and the MVD pA2 came out at 6.91.

H-[Dmt]-[Tic]-Ala-NH2 [H-Dmt-Tic-Ala-NH2] gave an MVD Ke of 9 nM and an MVD pA2 of 8. The matching figures for H-[Dmt]-[Tic]-NH2 [H-Dmt-Tic-NH2]: 42 nM and 7.2. For {N,N‑dimethyl}-[Dmt]-[Tic]-{NH(1-Adamantyl)} [N,N(Me)2-Dmt-Tic-NH-1-adamantane], the MVD Ke was 0.87 nM and the MVD pA2 was determined as 9.06. For the molecule H-[Dmt]-[dTic]-{NH(1-Adamantyl)} [H-Dmt-D-Tic-NH-1-adamantane], the MVD Ke is > 10000 nM. The molecule B2 came in with an MVD Ke of 0.69 nM and an MVD pA2 of 9.16. {des‑NH2‑α‑pyrrole‑1‑yl}-[Dmt]-[Tic]-OH [[des-NH2-α-pyrrole-1-yl]-Dmt-Tic-OH] came in with an MVD Ke of 408 nM and an MVD pA2 of 6.39.

In turn, H-[Dmt]-[Tic]-Ala-{NH(1-Adamantyl)} [H-Dmt-Tic-Ala-NH-1-adamantane] returned an MVD Ke of 0.51 nM and an MVD pA2 of 9.29.

Source of the values: patent US6753317.
